Measurements from patent EP2654803B1, “RADIOLABELED HER2-BINDING PEPTIDE CONJUGATES” (General Electric Company, priority 2010, dated 2021).
Where two headings read alike, the source gives them in different places.

How the values were obtained:
SKOV3 tumors [1] = test system: SKOV3 tumors; parameters: species or system female CD-1 nude mice; details: mouse, in vivo
Experimental: In vivo studies were carried out with female CD-1 nude mice (Charles River Labs, Hopkinton, MA) with an age range between 6 and 15 weeks. Mice were housed in a ventilated rack with food and water ad libitum and a standard 12 hour day-night lighting cycle. For xenografts, animals were injected with 100 µl of cells in PBS. Cells were implanted subcutaneously in the right hindquarter. Implantation was performed under isoflurane anesthesia. For SKOV3, between 3 x 10^6 to 4 x 10^6 cells were implanted in each mouse. Under these conditions, useable tumors ([…]) were obtained in 3 to 4 weeks in greater than 80% of animals injected. Mice were given tail-vein injections of ∼1 ug of ^18F-labeled polypeptide (∼4 uCi/1 µg). Mice were placed in filter-paper lined cages until euthanasia. Three mice were euthanized at each timepoint and tissues of interest dissected and counted on a Perkin Elmer Wallac Wizard 1480 Gamma Counter. Data were collected for blood, kidney, liver, spleen, bone and injection site (tail). Urine from cages was pooled with the bladder and also counted. The remaining tissues were counted and the sum of all tissues plus urine for each animal was summed to provide the total injected dose. The percent injected dose for each organ was determined based on this total, and organs were weighed for determination of the percent injected dose per gram, (%ID/g). […]

SKOV3 tumors [2] = test system: SKOV3 tumors; parameters: species or system female CD-1 nude mice; details: mouse, in vivo; remark: listed apart in the source
Experimental: Synthesis of the radiolabeled polypeptide was performed using a one-step kit formulation produced in house (Chelakit A+) containing a lyophilized mixture of stannous chloride as a reducing agent for technetium, methylene diphosphonic acid, p-aminobenzoate as a free-radical scavenger and sodium bicarbonate/sodium carbonate (pH 9.2) as buffer. In rapid succession, 20 µL of a 2 µg/µL solution of polypeptide in saline was added to the Chelakit, followed immediately by Na^99mTcO4 (0.8 mCi, 29.6 MBq) in 0.080 mL of saline (0.15M NaCl) obtained from Cardinal Health (Albany, NY). The mixture was agitated once and allowed to sit at ambient temperature for 20 min. Upon completion, the crude radiochemical yield was determined by ITLC (Table 6 below according to ITLC-SG, Biodex, 0.9% NaCl). […]
Mice were given tail-vein injections of ∼1 ug of ^99mTc-labeled polypeptides (∼10 µCi/1 µg). […] Three mice were euthanized at each timepoint and tissues of interest dissected and counted on a Perkin Elmer Wallac Wizard 1480 Gamma Counter. […] Urine from cages was pooled with the bladder and also counted. The remaining tissues were counted and the sum of all tissues plus urine for each animal was summed to provide the total injected dose. The % injected dose for each organ was determined based on this total, and organs were weighed for determination of the % injected dose per gram, (%ID/g). […]

| Substance | kidneys, ID/organ (SKOV3 tumors [1]) [ID/organ] | uptake in the liver (SKOV3 tumors [1]) | kidneys, ID/organ (SKOV3 tumors [2]) [ID/organ] | uptake in the liver (SKOV3 tumors [2]) [%ID/organ] |
| --- | --- | --- | --- | --- |
| Z02891 (SEQ. ID No. 2) 18F-fluorobenzyl oxime: Z02891-ONH2 (Mal-AO on cysteine) reacted with [18F]4-fluorobenzaldehyde | 0.95±0.07 | ca. 1.8 %ID/organ | – | – |
| Z02891 (SEQ. ID No. 2) cPN216: Z02891 polypeptide conjugated with Mal-cPN216 via a terminal cysteine and labeled with 99mTc | – | – | 10.58 ± 2.96 | 12 |
